Measured values reported in patent US20250043302A1, “MUTATED HYDROXYPHENYLPYRUVATE DIOXYGENASE POLYPEPTIDE, AND CODING GENE AND USE THEREOF” (BEIJING DABEINONG BIOTECHNOLOGY CO., LTD., priority 2021, published 2025).

B1: NtHPPD-02: nucleotide sequence encoding wild-type Nicotiana tabacum HPPD; vector DBN11750 (nucleic acid)
DNA: ATGGGGAAGCTGGAAACCGTCACTACCACCTCGGCGGCGGCTGCTGATGATTCATCGGAATTAACAACCAACTTCAAGTTGGTTGGTTTCAAAAATTTCATCAGAACAAACCCAAGGTCTGATTTCTTCTCCGTCAAGAGCTTCCACCACATTGAATTCTGGTGCGGTGACGCAACTAACACAGCGCGCCGCTTCTCATGGAGCCTAGGGATGCCAATTGCAGCTAAGAGTGATCTTTCAACAGGAAACAGCGTGCACGCCTCCTACCTCCTCCGGCCCGTAAGCGGTTCTTTACAGTTCCTGTTTACAGCACCATATTCACCTTCTATTTCGACTCCTAGTTCAGCTGCAATCCCATCTTTTTCCACATCTACACATAGGTCTTTCACTACAACACATGGACTGGGTGTTCGTGCCGTCGCCCTCGAGGTGGAGAATGCTTATACTGCCTTCAGTGCTTCTGTCTCCAGAGGCGCCAAGCCAATGTTTGAACCTGTGACAATTGATGAACAAGTAGCAATGGCTGAGGTTCATTTGTACGGCGATGTTGTGCTGCGATTTGTTTCTTATCTCAAGGACGCCGACAACCTGGTCTTCCTGCCGGGGTTTGAGGCCATGGATGAAACTGCTAGTTACAAAGAACTTGATTATGGAATACGGCGTTTGGATCATGCTGTGGGCAATGTTCCAGAACTCGGCCCGGTAGTTGATTACATCAAGAGGTTTACTGGATTTCATGAATTTGCAGAGTTTACCGCTGAAGATGTGGGAACTGCGGAAAGTGGGCTAAACTCCATGGTTCTTGCGAACAATGATGAGACTGTGCTCCTCCCTCTGAATGAGCCTGTTTATGGCACCAAAAGAAAATCTCAGATACAAACATATCTTGAGCATAATGAAGGAGCTGGGGTGCAGCACCTTGCTCTTGTTACTGAAGACATCTTTAAGACTTTGACAGAGATGAGGAAGAGAAGTGGAGTTGGAGGTTTTGAGTTCATGCCTTCCCCCCCGCCGACCTACTACAAGAATTTGAAGAACAGGGCTGGTGACGTCCTCTCAGACGAGCAGATTTTGGCTTGTGAGGAGCTTGGCATCTTGGTAGACCGGGACGACCAGGGGACGCTTCTCCAAATTTTCACAAAACCCGTCGGGGACCGCCCCACCATATTTATTGAGATCATCCAGAGGATAGGCTGCATGCTTAAAGATGGAAAAGGTCAAGTGTACCAGAAGGGTGGTTGTGGTGGGTTTGGCAAAGGAAATTTTTCTGAGCTGTTCAGAAGCATAGAAGAATATGAGAAGACACTGGAAGCAAAACAAGCAAATCAAGTTGCGGCCGCGTGA
modifications: NtHPPD-02 Nucleotide Sequence
notes: vector DBN11750
B2: GmHPPDm-F383W-02: nucleotide sequence encoding Glycine max HPPD with F383W; vector DBN11748 (nucleic acid)
DNA: ATGCCAATGTACACACCATCGCTCTCCGCCCCTTCTTCCAACCATATTCAGCCATCCGTGACTCTGCCTCTCTACATCACAACCACCAAGTTGAACCTGAAGCAGCAGCACCATACGACTCCTATGCCTATACCCATGTGCAATGAGATCCAAGCACAGGCTCAGGCACAAGCTCAACCCGGATTCAAACTCGTGGGATTCAAGAACTTCGTCCGTACCAATCCAAAATCTGACCGCTTCCAGGTGAACAGATTCCACCACATAGAGTTTTGGTGTACTGATGCAACGAATGCTTCGAGGAGGTTTTCATGGGGCTTAGGCATGCCGATTGTAGCAAAGTCAGACCTTTCTACAGGGAACCAAATTCATGCAAGCTATCTGCTCCGCTCAGGTGATTTGTCTTTCTTGTTCTCAGCTCCATATTCTCCATCATTATCTGCTGGGTCATCAGCAGCATCTAGTGCGTCGATCCCTAGCTTTGATGCCGCCACCTGCCTCGCCTTCGCCGCCAAACATGGATTTGGTGTTCGCGCCATTGCTCTTGAGGTTGCCGATGCCGAGGCTGCTTTTAGCGCCTCCGTCGCCAAGGGAGCTGAGCCTGCGTCACCTCCTGTTCTTGTTGATGATCGAACTGGTTTTGCTGAAGTGCGTCTTTACGGCGACGTGGTGCTCAGATATGTTAGTTACAAGGATGCTGCTCCTCAAGCGCCGCACGCTGATCCTTCAAGATGGTTTCTTCCGGGGTTTGAGGCCGCTGCTAGTTCATCTTCCTTCCCGGAGTTGGATTACGGCATACGGCGGCTTGACCATGCTGTCGGCAATGTTCCTGAGCTTGCTCCGGCGGTACGGTACTTGAAAGGTTTCTCCGGGTTCCATGAATTTGCAGAGTTCACGGCGGAAGATGTTGGAACAAGTGAAAGCGGATTGAATTCTGTTGTTTTGGCCAACAACAGTGAAACTGTTCTGCTCCCCCTCAATGAACCAGTTTATGGCACAAAGCGCAAGAGCCAGATTGAAACATATCTCGAGCACAATGAAGGCGCCGGCGTCCAGCATCTTGCTTTGGTGACTCATGATATCTTCACAACACTTAGGGAGATGAGGAAGAGGAGTTTCCTCGGCGGGTTTGAATTCATGCCCAGTCCCCCGCCGACCTACTATGCAAATCTGCACAACAGGGCTGCAGATGTGCTGACTGTAGACCAGATCAAGCAATGTGAAGAACTTGGAATTTTAGTGGATAGAGACGACCAAGGTACACTACTTCAAATATTCACCAAACCAGTCGGTGACAGACCAACAATTTGGATCGAGATTATACAAAGAATTGGATGCATGGTCGAGGATGAAGAAGGGAAGGTGTACCAGAAGGGAGCATGTGGTGGTTTTGGGAAAGGAAATTTTTCTGAGCTGTTTAAATCCATCGAGGAATATGAGAAAACCTTAGAAGCTAAAAGAACTGCATGA
modifications: GmHPPDm-F383W-02 Nucleotide Sequence
notes: vector DBN11748

Assays:
Type in all cases: in vivo
[1] = test system: Arabidopsis thaliana T1 plants; assay: Isoxaflutole tolerance of transgenic Arabidopsis thaliana T1 plants (spray, bleached leaf area grade, damage score); parameters: Scores (pesticide damage): scale not given here; conditions: spray, Arabidopsis thaliana T1 plants; for Classification and statistics of the grade of pesticide damage: Grade 0 (number of plants) / Classification and statistics of the grade of pesticide damage: Grade 1 (number of plants) / Classification and statistics of the grade of pesticide damage: Grade 2 (number of plants) / Classification and statistics of the grade of pesticide damage: Grade 3 (number of plants): 16 plants
Method in brief: (§1)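 Damage graded 0–3 from the proportion of bleached leaf area 7 days after spraying. Plants were glufosinate-selected T1 lines, 18 days after sowing, plus vector and wild-type controls. Rates: mesotrione 52.5–420, isoxaflutole 35–280, topramezone 25–200 g ai/ha, with water (0×).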

[2] = test system: Arabidopsis thaliana T1 plants; assay: Mesotrione tolerance of transgenic Arabidopsis thaliana T1 plants (spray, bleached leaf area grade, damage score); parameters: Scores: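 damage score 0-100 computed as Σ(N×S)/(T×M)×100 over grades 0-3 with higher meaning more damage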; conditions: Arabidopsis thaliana T1 plants; for Grade 0 (classification and statistics of the grade of pesticide damage; number of plants) / Grade 1 (classification and statistics of the grade of pesticide damage; number of plants) / Grade 2 (classification and statistics of the grade of pesticide damage; number of plants) / Grade 3 (classification and statistics of the grade of pesticide damage; number of plants): 16 plants
Method in brief: as §1

[3] = test system: Arabidopsis thaliana T1 plants; assay: Topramezone tolerance of transgenic Arabidopsis thaliana T1 plants (spray, bleached leaf area grade, damage score); conditions: 7 DAT, Table 4; for Classification and statistics of the grade of pesticide damage: Grade 0 / Classification and statistics of the grade of pesticide damage: Grade 1 / Classification and statistics of the grade of pesticide damage: Grade 2 / Classification and statistics of the grade of pesticide damage: Grade 3: number of plants; for Scores: pesticide damage score 0-100
Method in brief: as §1

[4] = isoxaflutole 35 g ai/ha (0.5x field concentration)
[5] = isoxaflutole 70 g ai/ha (1x field concentration)

| Molecule | Resistance evaluation [1, 4] | Scores (pesticide damage) [1, 4] | Classification and statistics of the grade of pesticide damage: Grade 0 (number of plants) [1, 4] | Classification and statistics of the grade of pesticide damage: Grade 1 (number of plants) [1, 4] | Classification and statistics of the grade of pesticide damage: Grade 2 (number of plants) [1, 4] | Classification and statistics of the grade of pesticide damage: Grade 3 (number of plants) [1, 4] | Resistance evaluation [1, 5] | Scores (pesticide damage) [1, 5] | Classification and statistics of the grade of pesticide damage: Grade 0 (number of plants) [1, 5] | Classification and statistics of the grade of pesticide damage: Grade 1 (number of plants) [1, 5] | Classification and statistics of the grade of pesticide damage: Grade 2 (number of plants) [1, 5] | Classification and statistics of the grade of pesticide damage: Grade 3 (number of plants) [1, 5] | Resistance evaluation ([2]; mesotrione 52.5 g ai/ha) | Scores ([2]; mesotrione 52.5 g ai/ha) | Grade 0 (classification and statistics of the grade of pesticide damage; number of plants) ([2]; mesotrione 52.5 g ai/ha) | Grade 1 (classification and statistics of the grade of pesticide damage; number of plants) ([2]; mesotrione 52.5 g ai/ha) | Grade 2 (classification and statistics of the grade of pesticide damage; number of plants) ([2]; mesotrione 52.5 g ai/ha) | Grade 3 (classification and statistics of the grade of pesticide damage; number of plants) ([2]; mesotrione 52.5 g ai/ha) | Resistance evaluation ([2]; mesotrione 105 g ai/ha) | Scores ([2]; mesotrione 105 g ai/ha) | further results |
| --- | --- | --- | --- | --- | --- | --- | --- | --- | --- | --- | --- | --- | --- | --- | --- | --- | --- | --- | --- | --- | --- |
| B1 | Non-resistant | 100 | 0 | 0 | 0 | 16 | Non-resistant | 100 | 0 | 0 | 0 | 16 | Non-resistant | 100 | 0 | 0 | 0 | 16 | Non-resistant | 100 | Grade 0 (classification and statistics of the grade of pesticide damage; number of plants) ([2]; mesotrione 105 g ai/ha): 0; Grade 1 (classification and statistics of the grade of pesticide damage; number of plants) ([2]; mesotrione 105 g ai/ha): 0; Grade 2 (classification and statistics of the grade of pesticide damage; number of plants) ([2]; mesotrione 105 g ai/ha): 0; Grade 3 (classification and statistics of the grade of pesticide damage; number of plants) ([2]; mesotrione 105 g ai/ha): 16; Classification and statistics of the grade of pesticide damage: Grade 0 ([3]; topramezone 25 g ai/ha (1×)): 0; Classification and statistics of the grade of pesticide damage: Grade 1 ([3]; topramezone 25 g ai/ha (1×)): 0; Classification and statistics of the grade of pesticide damage: Grade 2 ([3]; topramezone 25 g ai/ha (1×)): 0; Classification and statistics of the grade of pesticide damage: Grade 3 ([3]; topramezone 25 g ai/ha (1×)): 16; Classification and statistics of the grade of pesticide damage: Grade 0 ([3]; topramezone 100 g ai/ha (4×)): 0; Classification and statistics of the grade of pesticide damage: Grade 1 ([3]; topramezone 100 g ai/ha (4×)): 0; Classification and statistics of the grade of pesticide damage: Grade 2 ([3]; topramezone 100 g ai/ha (4×)): 0; Classification and statistics of the grade of pesticide damage: Grade 3 ([3]; topramezone 100 g ai/ha (4×)): 16; Scores ([3]; topramezone 25 g ai/ha (1×)): 100; Scores ([3]; topramezone 100 g ai/ha (4×)): 100; Resistance evaluation ([3]; topramezone 25 g ai/ha (1×)): non-resistant (non-resistant plants (scores 68-100)); Resistance evaluation ([3]; topramezone 100 g ai/ha (4×)): non-resistant (non-resistant plants (scores 68-100)) |
| B2 | Non-resistant | 81 | 0 | 0 | 9 | 7 | Non-resistant | 100 | 0 | 0 | 0 | 16 | Non-resistant | 100 | 0 | 0 | 0 | 16 | Non-resistant | 100 | Grade 0 (classification and statistics of the grade of pesticide damage; number of plants) ([2]; mesotrione 105 g ai/ha): 0; Grade 1 (classification and statistics of the grade of pesticide damage; number of plants) ([2]; mesotrione 105 g ai/ha): 0; Grade 2 (classification and statistics of the grade of pesticide damage; number of plants) ([2]; mesotrione 105 g ai/ha): 0; Grade 3 (classification and statistics of the grade of pesticide damage; number of plants) ([2]; mesotrione 105 g ai/ha): 16; Classification and statistics of the grade of pesticide damage: Grade 0 ([3]; topramezone 25 g ai/ha (1×)): 0; Classification and statistics of the grade of pesticide damage: Grade 1 ([3]; topramezone 25 g ai/ha (1×)): 3; Classification and statistics of the grade of pesticide damage: Grade 2 ([3]; topramezone 25 g ai/ha (1×)): 9; Classification and statistics of the grade of pesticide damage: Grade 3 ([3]; topramezone 25 g ai/ha (1×)): 4; Classification and statistics of the grade of pesticide damage: Grade 0 ([3]; topramezone 100 g ai/ha (4×)): 0; Classification and statistics of the grade of pesticide damage: Grade 1 ([3]; topramezone 100 g ai/ha (4×)): 0; Classification and statistics of the grade of pesticide damage: Grade 2 ([3]; topramezone 100 g ai/ha (4×)): 0; Classification and statistics of the grade of pesticide damage: Grade 3 ([3]; topramezone 100 g ai/ha (4×)): 16; Scores ([3]; topramezone 25 g ai/ha (1×)): 69; Scores ([3]; topramezone 100 g ai/ha (4×)): 100; Resistance evaluation ([3]; topramezone 25 g ai/ha (1×)): non-resistant (non-resistant plants (scores 68-100)); Resistance evaluation ([3]; topramezone 100 g ai/ha (4×)): non-resistant (non-resistant plants (scores 68-100)) |
